For data set [1], the system named is CC(C)=CCC/C(C)=C/CC/C(C)=C/CO[P@@](=O)(O)OP(=O)(O)O. The data set is described as follows: purified protein, by the assay type. As to conditions: other: substrate Km of S. pneumoniae UPPS; pH optimum 7.5-8.0; pH 7.5; 25.0 °C.
Protocol: The reaction was incubated at 25° C. for 25 min and stopped by addition of EDTA to 50 mM. The reaction was extracted with equal volume of 1-butanol and the radioactivity in the butanol phase was measured with a liquid scintillation counter (Shimizu, N., T. Koyama, and K. Ogura. (1998) J. Biol. Chem. 273:19476-19481).
Data set [2] deals with C=C(C)CCO[P@@](=O)(O)OP(=O)(O)O. In words: purified protein, by the assay type. As to conditions: other: substrate Km of S. pneumoniae UPPS; pH optimum 7.5-8.0; pH 7.5; 25.0 °C.

In US20070020743A1, “Undecaprenyl pyrophosphate synthase (upps)enzyme and methods of use” (priority 2001, published 2007) one finds Km data, which are given here for one substance.

One may read the Km as the concentration of substrate that gives half-maximal velocity.

Take “S. pneumoniae UPPS (Streptococcus pneumoniae TIGR4)”: the Km in data set [1] came out at 0.5 µM; in data set [2] it was 3.6 µM.
